We go through eleven sequences from the supplement of paper PMC9170038.

The test system of this series is MS2 coat protein. As to the kind of experiment: apparent KD of MS2 coat protein; designed switch direction (-1 OFF switch, 1 ON switch): -1; higher = weaker reporter binding. The method in brief:
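Three titration conditions were used: no input, 200 uM small-molecule ligand, and an oligonucleotide input. In each, SNAP-549-labelled MS2 coat protein was raised from 0.7 or 1.5 nM, doubling, to 3 µM over designed RNA switches transcribed on Illumina chips by stalled E. coli RNA polymerase. Curve fits of normalised cluster fluorescence gave values whose per-design median over clusters is the apparent KD.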

Setting [1] is: Eterna round: R95, input ligand: FMN 200 uM.
[2] abbreviates: Eterna round: R95, input ligand: microRNA oligo, concentration not stated.
Where [3] appears, read: Eterna round: R95, input ligand: none.
[4] abbreviates: input ligand: microRNA oligo, concentration not stated.

Turning to “AGAAGUAGAAACCGAUCCUACAUGAGGAUCACCCAUGUAGCAAGACGUGCACGCGAAGCUCGUCAGACUACCAGAUG [salish99_TOv1_r3_017] (puzzle: Sensor v3, turn-off variant 1)”, the “apparent KD of MS2 coat protein” value is, setting by setting: under setting [1], 0.297 µM; under setting [2], 0.108 µM; under setting [3], 0.313 µM.

With “AGAAGUAGUAACCGAUCCUACAUGAGGAUCACCCAUGUAGCUAGACGUGCACGCGAAGCUCGUCAGACUACCAGAUG [salish99_TOv1_r3_023] (puzzle: Sensor v3, turn-off variant 1)”, the “apparent KD of MS2 coat protein” value runs as follows: under setting [1], 0.298 µM; under setting [2], 0.273 µM; under setting [3], 0.212 µM.

Consider “AGACGUCAAGUCAGGAUAUAGAGGCAAGUCCACCGCUAGAAGGGACAUGAGGAUCACCCAUGUAGGGUUUAGCU [Zainsoed] (puzzle: Brourd's mod of Exclusion 4)”, for which the “apparent KD of MS2 coat protein” value is, setting by setting: under setting [1], 0.101 µM; under setting [2], 0.157 µM; under setting [3], 0.135 µM.

For “AGAGAAUAGGUAGGAUAUCUUAAUAGAAAGAAUAGAGAAGGACCACAUGAGGAUCACCCAUGUGAAGUCUUGAGACUACAUGGU [Prohibition 31 - Jieux - Exclusion NG 1] (Eterna round: R96, puzzle: Exclusion NG 1)”, under setting [4], the “apparent KD of MS2 coat protein” value stood at 0.015 µM.

For “AGAGAAUAGUCAGGAUAUGUGAAUAGAUAGAGAACAGAAGGGACACAUGAGGAUCACCCAUGUGAAGUCUUGAGGCUGCAUGGA [Prohibition 22 - Jieux - Exclusion NG 1] (Eterna round: R96, puzzle: Exclusion NG 1)”, the “apparent KD of MS2 coat protein” value reads like this: (input ligand: FMN 200 uM) 0.0439 µM; under setting [4], 0.0241 µM; (input ligand: none) 0.039 µM.

As to “AGAGCACGAGGAUAUACAAGGAUAACUCGCAGAUCGUCAGUACAUGAGGAUCACCCAUGUAGAAGGUGUUAGCA [Eternabot (Original) Solution 6] (Eterna round: R97, puzzle: Exclusion 2)”, the “apparent KD of MS2 coat protein” value reads like this: (input ligand: FMN 200 uM) 0.0412 µM; (input ligand: none) 0.0589 µM.

Consider “AGAGGGCGAGGAUAUGCUAAAAGUGGUGCAGUUGUUCGUCGACUUGAGGAUCACCCAAGUAGAAGGCGCACUUC [Sointeer] (Eterna round: R97, puzzle: Exclusion 2)”, for which the “apparent KD of MS2 coat protein” value is, setting by setting: (input ligand: FMN 200 uM) 0.0679 µM; (input ligand: none) 0.0185 µM.

On to “AGAGUACUGCGAGGAUAUACAUGAGGAUCACCCAUGUAAUAGUGUGAGGCUUUGCCUCACACAAUGUAGAAGGCGCAGUACUCA [Mat - Exclusion NG 2 - Mod of JL - D6] (Eterna round: R96, puzzle: Exclusion NG 2)”, for which the “apparent KD of MS2 coat protein” value (input ligand: FMN 200 uM) came out at 0.0157 µM, the “apparent KD of MS2 coat protein” value under setting [4] worked out at 0.00981 µM and the “apparent KD of MS2 coat protein” value (input ligand: none) was 0.0178 µM.

Take “AGAGUACUGCGAGGAUAUACAUGAGGAUCACCCAUGUGGUGGUGUGAGGCUUUGCCUCACACCAUGUAGAAGGCGCAGUACUCA [Mat - Exclusion NG 2 - Mod of JL - D19] (Eterna round: R96, puzzle: Exclusion NG 2)”: the “apparent KD of MS2 coat protein” value stood at 0.257 µM (input ligand: FMN 200 uM), 0.0268 µM under setting [4] and 0.0353 µM (input ligand: none).

Take “AGAGUGCUGCGAGGAUAUACAUGAGGAUCACCCAUGUAAAUGUGUGAGGCUUUGCCUCACACAAUGUAGAAGGCGCAGUACUCU [Mat - Exclusion NG 2 - Mod of JL - D1] (Eterna round: R96, puzzle: Exclusion NG 2)”: the “apparent KD of MS2 coat protein” value was 0.0178 µM (input ligand: FMN 200 uM), 0.00858 µM under setting [4] and 0.0156 µM (input ligand: none).

As to “AGAGUGCUGCGAGGAUAUACAUGAGGAUCACCCAUGUAUUAGUGUGAGGCUUUGCCUCACACAAUGUAGAAGGCGCAGUACUCA [Mat - Exclusion NG 2 - Mod of JL - D8] (Eterna round: R96, puzzle: Exclusion NG 2)”, the “apparent KD of MS2 coat protein” value is 0.0068 µM (input ligand: FMN 200 uM), 0.0111 µM under setting [4] and 0.0124 µM (input ligand: none).
